According to patent publication US20140011978A1 (EPFL TTO, published 2014):

How the values were obtained:
Assay in all cases: ELISA: growth factor coated, Fg fragment in solution, A450 (methods analogous to Example 3)
[1] = molecular target: T1, PlGF-1 (UniProt P49763-2 19-149)
T1 sequence (looked up): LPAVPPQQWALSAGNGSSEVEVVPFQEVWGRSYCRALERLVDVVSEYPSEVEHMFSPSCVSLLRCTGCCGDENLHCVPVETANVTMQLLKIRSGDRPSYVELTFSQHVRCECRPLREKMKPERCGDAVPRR
Method: (§1) ELISA plates were coated with cytokines or BSA and further incubated with TNC III1-5 to analyze binding of TNC III1-5 to a wide variety of cytokines. […] A large amount of heparin (4 μM) impaired binding of TNC III1-5 to these cytokines. Results are depicted in FIG. 3. Method: 50 nM of cytokine was coated for (1 hr, 37° C.). After blocking with 2% BSA (1 hr, RT). 100 nM TNC III1-5 was applied in PBST (0.05% tween, 0.1% bovine serum albumin (BSA)) (1 hr, RT). TNC III1-5 was detected with horseradish peroxidase (HRP)-anti-HIS in PBST (1 hr, RT) and developed with 3,3′,5,5′-tetramethylbenzidine (TMB), a soluble colorimetric HRP […]. Addition of sulfuric acid stop solution changes the color to yellow, enabling accurate measurement of the intensity at 450 nm using a spectrophotometer or plate reader. […] Heparin (4 μM) was added to TNC III1-5 to test the effect of blocking the heparin binding site of TNC III1-5, which has been defined as domain TNC III5 (Weber, Zimmermann, et al., 1995).
(§2) ELISA plates were coated with cytokines or BSA and further incubated with Fg β15-66 to analyze binding of […] to a wide variety of cytokines. […] Results are depicted in FIG. 4. Method: The methods were analogous to those used in Example 3.

[2] = molecular target: T2, NT-3 (UniProt P20783 139-257)
T2 sequence (looked up): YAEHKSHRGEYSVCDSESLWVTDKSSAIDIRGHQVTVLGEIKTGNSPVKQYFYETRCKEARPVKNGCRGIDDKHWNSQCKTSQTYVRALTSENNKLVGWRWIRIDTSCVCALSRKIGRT
Method: as §1, §2

[3] = molecular target: T3, FGF-6 (UniProt P10767 38-208, limits assumed)
T3 sequence (looked up): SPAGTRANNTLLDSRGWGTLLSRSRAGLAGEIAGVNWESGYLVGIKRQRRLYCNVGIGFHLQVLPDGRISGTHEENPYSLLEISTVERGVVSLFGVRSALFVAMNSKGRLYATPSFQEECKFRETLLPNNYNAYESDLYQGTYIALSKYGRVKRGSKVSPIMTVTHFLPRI
Method: as §1, §2

[4] = molecular target: T4, FGF-7 (UniProt P21781 32-194)
T4 sequence (looked up): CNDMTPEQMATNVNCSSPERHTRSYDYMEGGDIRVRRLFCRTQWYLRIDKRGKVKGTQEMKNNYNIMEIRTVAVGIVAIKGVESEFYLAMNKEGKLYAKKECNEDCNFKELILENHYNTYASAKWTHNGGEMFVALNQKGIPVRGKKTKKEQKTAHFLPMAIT
Method: as §1, §2

[5] = molecular target: T5, BDNF (UniProt P23560 129-247)
T5 construct: also called brain-derived neurotrophic factor
T5 sequence (looked up): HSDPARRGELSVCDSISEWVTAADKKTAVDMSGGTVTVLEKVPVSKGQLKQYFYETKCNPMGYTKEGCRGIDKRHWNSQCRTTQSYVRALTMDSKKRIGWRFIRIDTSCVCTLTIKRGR
Method: as §1, §2

[6] = molecular target: VEGF-A165 (UniProt P15692-4 27-191)
Method: as §1, §2

[7] = molecular target: T6, TGF-β3 (Natural form is a disulfide-linked homodimer; one protomer is given.)
T6 chain: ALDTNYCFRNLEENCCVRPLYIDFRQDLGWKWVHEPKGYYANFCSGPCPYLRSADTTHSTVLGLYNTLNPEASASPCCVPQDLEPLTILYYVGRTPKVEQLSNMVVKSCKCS
Method: as §1, §2

[8] = molecular target: IGF-BP3 (UniProt P17936 28-291)
Method: as §1, §2

[9] = molecular target: BMP-2 (UniProt P12643 283-396)
Method: as §1, §2

[10] = molecular target: T7, TGF-β2 (UniProt P61812 303-414)
T7 sequence (looked up): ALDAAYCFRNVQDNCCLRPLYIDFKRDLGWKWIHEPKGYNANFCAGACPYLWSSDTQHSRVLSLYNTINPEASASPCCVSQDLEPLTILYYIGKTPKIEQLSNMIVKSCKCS
Method: as §1, §2

[11] = molecular target: EGF
Method: as §1, §2

[12] = molecular target: T8, FGF-10 (UniProt O15520 38-208)
T8 sequence (looked up): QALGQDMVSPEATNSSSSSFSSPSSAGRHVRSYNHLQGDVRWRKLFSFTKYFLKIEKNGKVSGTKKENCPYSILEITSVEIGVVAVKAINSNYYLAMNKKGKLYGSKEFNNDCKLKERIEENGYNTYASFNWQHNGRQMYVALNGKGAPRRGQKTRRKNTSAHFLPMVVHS
Method: as §1, §2

[13] = molecular target: PDGF-DD (UniProt Q9GZP0 250-370)
Method: as §1, §2

Sequence of BMP-2 (P12643 283-396 limits assumed): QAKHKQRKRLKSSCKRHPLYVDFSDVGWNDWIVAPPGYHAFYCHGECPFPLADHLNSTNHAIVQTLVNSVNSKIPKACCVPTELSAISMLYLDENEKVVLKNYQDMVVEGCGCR
Sequence of PDGF-DD (Q9GZP0 250-370): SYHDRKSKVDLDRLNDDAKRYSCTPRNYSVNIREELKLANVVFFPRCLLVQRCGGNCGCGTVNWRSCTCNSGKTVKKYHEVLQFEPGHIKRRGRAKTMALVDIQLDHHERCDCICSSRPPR
Sequence of VEGF-A165 (P15692 other isoform, or with tags, fused parts or gaps limits assumed): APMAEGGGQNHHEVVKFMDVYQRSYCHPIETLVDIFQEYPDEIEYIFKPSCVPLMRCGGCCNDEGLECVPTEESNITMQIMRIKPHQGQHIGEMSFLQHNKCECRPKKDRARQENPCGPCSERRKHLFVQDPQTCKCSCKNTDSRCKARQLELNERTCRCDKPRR
Sequence of IGF-BP3 (P17936 28-291 limits assumed): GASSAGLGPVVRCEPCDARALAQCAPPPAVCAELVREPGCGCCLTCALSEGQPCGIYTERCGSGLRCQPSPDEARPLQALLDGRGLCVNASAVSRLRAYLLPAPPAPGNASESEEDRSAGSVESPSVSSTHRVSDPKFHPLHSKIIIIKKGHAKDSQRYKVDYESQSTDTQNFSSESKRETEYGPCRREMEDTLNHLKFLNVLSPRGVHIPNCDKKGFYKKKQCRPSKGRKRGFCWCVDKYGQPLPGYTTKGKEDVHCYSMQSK

B1: Fg β15-66 (other)
chain: GSNQEQVSPLGHRPLDKKREEAPSLRPAPPPISGGGYRARPAKAAATQKKVERKAPDAGGCGHHHHHH
notes: Made as a GST fusion; GST was cleaved off; also called TG-Fg β15-66; fibrinogen β15-66 domain
B1: no binding [1]; binds [2]; no binding [3]. B1: binds [4]; binds [5]; binds [6]. B1: no binding [7]; binds [8]; binds [9]. B1: binds [10]; no binding [11]; binds [12]. B1: binds [13].
